Here are results for two molecules from article PMC5395218, “Biochemical and structural investigations on phosphoribosylpyrophosphate synthetase from Mycobacterium smegmatis” (PLoS ONE, 2017).

Series [1] has as its target T1, phosphoribosylpyrophosphate synthetase (MsPrsA) (Mycolicibacterium smegmatis, UniProt A0R3C8).
T1 construct: gene prs; recombinant MsPrsA, hexamer
T1 sequence (A0R3C8 1-326): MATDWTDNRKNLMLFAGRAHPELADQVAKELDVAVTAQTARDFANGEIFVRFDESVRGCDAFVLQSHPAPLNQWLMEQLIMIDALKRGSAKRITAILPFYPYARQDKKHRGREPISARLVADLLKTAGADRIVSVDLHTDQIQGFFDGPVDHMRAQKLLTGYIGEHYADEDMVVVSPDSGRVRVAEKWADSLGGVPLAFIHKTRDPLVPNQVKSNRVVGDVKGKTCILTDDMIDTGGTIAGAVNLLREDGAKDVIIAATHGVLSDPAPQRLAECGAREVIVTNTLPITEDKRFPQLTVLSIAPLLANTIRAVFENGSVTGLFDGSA
Nature of the series: OPRT-coupled spectrophotometric assay, dose response on purified enzyme. In kind it is biochemical.

Substrate in the series “purified protein”: Nc1ncnc2c1ncn2[C@@H]1O[C@H](COP(=O)(O)OP(=O)(O)OP(=O)(O)O)[C@@H](O)[C@H]1O
Nature of the series: purified protein. The settings on record: Mg2+, inorganic phosphate. In kind it is biochemical, Mycolicibacterium smegmatis.

Series [2] concerns the molecule itself. Description: SEC; analytical gel filtration on Sephacryl S200HR 16/60, MsPrsA 1 mg/ml in Tris-HCl 20mM pH 8.0, NaCl 50mM; column calibrated with Blue Dextrane, catalase, aldolase, albumin, ovoalbumin; elution volume consistent with about 221 KDa.

The term IC50 denotes the midpoint of a concentration-inhibition curve. Regarding `Nc1ncnc2c1ncn2[C@@H]1O[C@H](COP(=O)(O)OP(=O)(O)O)[C@@H](O)[C@H]1O` [ADP], the IC50 in series [1] amounted to 174 ± 46 µM.

B1: Mycobacterium smegmatis phosphoribosylpyrophosphate synthetase (PrsA) (enzyme, M. smegmatis mc2155, UniProt A0R3C8 1-326, looked up)
chain: T1 sequence (A0R3C8 1-326)
notes: Phosphoribosylpyrophosphate synthetase (PrsA) of M. smegmatis mc2155; the crystal model holds Arg9-Gly316 without Arg204-Lys213; pCold I is recalled to add an N-terminal translation enhancing element, His6 and a Factor Xa site; also called MsPrsA; M. smegmatis PrsA
The Vmax is the rate approached at saturating substrate. A word on the kcat: it is the maximal rate divided by the concentration of active sites. For orientation: kcat/Km means the second-order rate constant that governs catalysis at low substrate concentration. Broadly, the stoichiometry N is a count of units in the complex or per binding partner. For B1, in “purified protein”, the K0.5 turned out to be 0.058 ± 0.005 mM, the Vmax was 0.006 µmol/min, the kcat was found to be 83.5 ± 4.1 s⁻¹ and the kcat/Km stood at 1.44e+06 ± 53800 M⁻¹ s⁻¹. Moreover, in series [2], the “stoichiometry N” value was determined as 6.
